Here are results for one molecule from patent US20210024652A1.

The target of the test is plasma membrane calcium ATPase PMCA4b, P23634. Description: cell-based or functional assay.
Chain of plasma membrane calcium ATPase PMCA4b, P23634 (P23634 whole entry): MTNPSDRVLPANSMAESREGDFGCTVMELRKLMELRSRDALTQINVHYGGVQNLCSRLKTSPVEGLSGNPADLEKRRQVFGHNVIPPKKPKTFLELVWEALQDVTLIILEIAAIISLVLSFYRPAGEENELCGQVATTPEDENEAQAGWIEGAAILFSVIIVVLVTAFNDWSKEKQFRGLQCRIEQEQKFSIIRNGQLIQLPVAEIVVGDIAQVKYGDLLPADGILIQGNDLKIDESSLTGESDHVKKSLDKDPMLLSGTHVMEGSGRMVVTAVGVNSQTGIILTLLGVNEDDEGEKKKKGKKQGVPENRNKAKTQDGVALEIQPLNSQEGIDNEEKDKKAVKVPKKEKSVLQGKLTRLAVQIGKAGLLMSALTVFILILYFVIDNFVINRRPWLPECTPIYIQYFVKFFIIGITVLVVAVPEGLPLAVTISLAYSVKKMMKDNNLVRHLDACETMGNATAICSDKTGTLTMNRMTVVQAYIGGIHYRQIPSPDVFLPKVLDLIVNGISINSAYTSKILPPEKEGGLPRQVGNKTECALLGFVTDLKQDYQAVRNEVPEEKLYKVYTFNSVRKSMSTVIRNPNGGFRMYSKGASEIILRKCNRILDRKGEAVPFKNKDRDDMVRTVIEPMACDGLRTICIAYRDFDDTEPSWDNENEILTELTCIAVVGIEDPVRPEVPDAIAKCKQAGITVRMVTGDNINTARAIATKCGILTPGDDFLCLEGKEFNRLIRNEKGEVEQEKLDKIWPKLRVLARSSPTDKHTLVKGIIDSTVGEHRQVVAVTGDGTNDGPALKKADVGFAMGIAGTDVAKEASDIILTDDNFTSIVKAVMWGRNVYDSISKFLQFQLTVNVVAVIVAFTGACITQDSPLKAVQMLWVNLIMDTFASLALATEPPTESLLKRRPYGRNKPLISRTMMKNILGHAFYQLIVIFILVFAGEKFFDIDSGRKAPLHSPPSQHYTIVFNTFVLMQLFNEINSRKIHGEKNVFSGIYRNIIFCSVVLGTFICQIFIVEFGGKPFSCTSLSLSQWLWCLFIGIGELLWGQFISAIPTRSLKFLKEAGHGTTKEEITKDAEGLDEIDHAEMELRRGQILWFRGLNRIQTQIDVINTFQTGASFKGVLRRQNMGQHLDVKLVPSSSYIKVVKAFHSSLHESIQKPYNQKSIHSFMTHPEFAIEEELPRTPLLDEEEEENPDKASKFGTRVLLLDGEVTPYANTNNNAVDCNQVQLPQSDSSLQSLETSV

With CIRFVSIDNKKRNIESSEIG [RNLS peptide RP-220], the decrease in RNLS dependent ERK phosphorylation in MiaPaCa2 cells after PMCA4b siRNA, western blot is 70%.
